Legend:
Assay in all cases: cell_activity
ZFN 18473 (synthetic) = details: pair with 25096 (26.5% with 18477); Cel-I assay
ZFN 25096 (synthetic) = details: pair with 18473; Cel-I assay
ZFN 18477 (synthetic) = details: pair with 18473; Cel-I assay

GATGGGCGGGAGTCTTCTGGGCAGGCTT (double strand) [18473 target]
activity (ZFN 18473 (synthetic)): 35.7 % NHEJ

CTAGAAAGACTGGAGTTGCAGATCACGA (double strand) [25096 target]
activity (ZFN 25096 (synthetic)): 35.7 % NHEJ

CTAGAAAGACTGGAGTTGCAGATCACGA (double strand) [18477 target]
activity (ZFN 18477 (synthetic)): 26.5 % NHEJ

Reference: patent US20110265198
